“Also recorded” adds a separate entry of the source.
Key:
[1] = molecular target: T1, CaENO1 (Candida albicans, UniProt P30575); type: binding, C. albicans
T1 construct: using full-length CaENO1 (1323 bp) as template; His (N); made in house; host or cells: E. coli BL21
Experimental: (A) Purified CaS1 scFv was used to recognize recombinant CaENO1 protein. The CaS1 scFv were used as primary antibody with series dilution. The goat anti-chicken light chain IgG was used as secondary antibody. The HRP conjugated donkey anti-goat IgG was used to decet. (B) OD value was calculated into percentage. […] The goat anti-chicken light chain IgG was used as secondary antibody. The HRP conjugated donkey anti-goat IgG was used to detect. (D) We calculated OD value into percentage.
The goat anti-chicken light chain IgG was used as secondary antibody. The HRP conjugated donkey anti-goat IgG was used to decet. (B, D) OD value was calculated into percentage. […] ELISA data were represented as mean±SD of the duplicated well.
After vigorous washings, the bound IgY antibodies were detected by adding HRP-conjugated polyclonal donkey anti-chicken IgY antibodies (1:3,000) (Bethyl Laboratories, Montgomery, Tex., USA) while the bound CaS1 scFv antibodies were detected by goat anti-chicken light chain antibodies (1:3,000) (Bethyl Laboratories, Montgomery, Tex., USA), followed by HRP-conjugated donkey anti-goat IgG antibodies (Jackson ImmunoResearch, USA). After washing as above, a tetramethylbenzidine (TMB) substrate solution (Sigma, USA) was added to the wells for color development. The reaction was stopped with 1 N HCl and optical density was measured at 450 nm using an ELISA plate reader (BioTek Synergy HT). Dissociate constant (KD) was calculated according to the equation, grams/molecular weight (Da)×volume (L)^−1.
The goat anti-chicken light chain IgG was used as secondary antibody. The HRP conjugated donkey anti-goat IgG was used to decet (see FIGS. 14 (A) and (C)). OD value was calculated into percentage. […] ELISA data were represented as mean±SD of the duplicated well (see FIGS. 14 (B) and (D)).

[2] = molecular target: T2, ENO1 protein expressed in cell lysates of C. albicans (Candida albicans, UniProt P30575); assay: Western blot on total cell lysate of C. albicans; type: binding
T2 construct: endogenous in cells; host or cells: C. albicans SC 5314 and clinical isolates CA6-17, CA7-26, CA7-3, CA10-50, CA7-30, CA10-65
Description: (A) The total cell lysates of 5 Candida spp. were visualized on SDS-PAGE (left). After transferred onto the NC membranes, they were probed with purified anti-CaENO1 from 7th immunized chicken (1:3,000) (middle), or with CaS1 scFv (right) as described in material and methods. Lanes 1-6 in (A) contained the total cell lysates of C. albicans, C. krusei, C. tropicalis, C. parapsilosis and C. glabrate and purified recombinant CaENO1, respectively. […] (C) Total cell lysate from FLU^R and FLU^s and C. tropicalis (lanes 1-5 represent CT6-29, CT11-52, CT6-50, CT12-54, BCRC20520, respectively) by SDS-PAGE (left) and probed with CaS1 scFv by Western blot (right). (D) The purified ENO1 proteins of C. albicans, S. pneumonia, S. aureus, mouse and human were visualized on SDS-PAGE (left). After transferred onto the NC membranes, they were probed with purified CaS1 scFv (right) as described. Lane M contained protein markers. […]
This CaS1 scFv was evaluated for its binding activity to different species of Candida. Five common strains of Candida were obtained, total lysate of five species Candida were analyzed on SDS-PAGE (FIG. 6A left) and subsequent Western blot.

[3] = molecular target: T3, mENO1 (Mus musculus, UniProt P17182); assay: Western blot on purified mouse ENO1 protein; type: binding
T3 construct: His; made in house; host or cells: E. coli BL21 (by 'in the same way')
Description: Lane M contained protein markers.
The ImageQuant LAS4500 was used for ECL intensity detection.

[4] = system: C. albicans; assay: Mouse model of C. albicans infection (survival); type: in vivo, ICR mice; settings: for survival rate: ICR mice; for Protection against lethal challenge of C. albicans in mice: mouse, in vivo
Experimental: The mice were grouped and challenged with the mixture of 10^6 of C. albicans containing 10 ug and 100 ug CaS1 scFv, 100 ug anti-DA scFv (unrelated scFv control) or 1×PBS, respectively. The survival of mice was monitored at 1 day intervals for 10 days.
A total of 20 ICR female mice (purchased from National Laboratory Animal Center, Taiwan) weighing about 30 g were randomly grouped with 5 mice in each group. C. albicans were grown overnight and washed in normal saline. Four groups of mice were treated through the lateral tail vein with the following preparations: (i) 1×PBS alone; (ii) 1×10^6 cfu of C. albicans cells pre-incubated with 50 μg of CaS1; (iii) 1×10^6 cfu of C. albicans cells pre-incubated with 100 μg of CaS1; (iv) 1×10^6 cfu of C. albicans cells pre-incubated with anti-CaENO1 IgY. Mice were monitored for survival at 1 day intervals for 10 days. All treatments and handling of mice were carried out according to animal experimental protocols approved by the Institutional Animal Care and Use Committee of Taipei Medical University.
1×10^6 cells of C. albicans solutions were mixed with 100 μg of each of the anti-CaENO1 IgY, scFv CaS1 and control scFv and then injected into ICR mice (5 mice for each group).
We evaluated the survival rate of the CaS1 on animal model. Initially ICR mice were tail-vein injected with 1×10^6 cells of C. albicans with PBS alone or cells pre-incubated with CaS1 (10 and 100 μg) for one hour at 37° C. […] Anti-Deinagkistrodon acutus scFv (anti-DA) is an antibody to snake venom, which was used as an unrelated scFv control.

T1 sequence (P30575 whole entry): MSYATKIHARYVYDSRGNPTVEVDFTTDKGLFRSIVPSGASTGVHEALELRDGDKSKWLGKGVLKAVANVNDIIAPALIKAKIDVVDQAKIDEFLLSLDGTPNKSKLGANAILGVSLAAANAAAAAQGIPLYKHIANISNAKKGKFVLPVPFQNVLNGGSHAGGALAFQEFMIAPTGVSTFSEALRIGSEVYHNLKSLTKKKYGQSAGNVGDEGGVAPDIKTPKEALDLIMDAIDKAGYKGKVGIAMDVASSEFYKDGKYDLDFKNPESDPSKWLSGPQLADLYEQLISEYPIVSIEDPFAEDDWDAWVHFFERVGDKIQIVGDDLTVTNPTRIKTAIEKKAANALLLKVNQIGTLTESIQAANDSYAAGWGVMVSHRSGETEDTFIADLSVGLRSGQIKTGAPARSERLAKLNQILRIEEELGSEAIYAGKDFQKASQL
T2 sequence (P30575 whole entry): as above
T3 sequence (P17182 whole entry): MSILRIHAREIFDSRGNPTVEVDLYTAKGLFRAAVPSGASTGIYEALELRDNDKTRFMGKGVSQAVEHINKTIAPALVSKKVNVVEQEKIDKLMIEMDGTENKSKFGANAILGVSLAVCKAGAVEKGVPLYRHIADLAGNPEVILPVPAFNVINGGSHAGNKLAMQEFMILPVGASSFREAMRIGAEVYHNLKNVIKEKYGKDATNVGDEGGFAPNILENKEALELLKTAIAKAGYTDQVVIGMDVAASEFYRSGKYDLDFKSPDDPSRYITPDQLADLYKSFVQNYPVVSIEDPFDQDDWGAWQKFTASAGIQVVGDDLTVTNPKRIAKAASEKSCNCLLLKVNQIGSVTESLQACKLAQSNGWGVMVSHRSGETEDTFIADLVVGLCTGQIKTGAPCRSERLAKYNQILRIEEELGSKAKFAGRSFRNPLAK

B1: CaS1 scFv: anti-CaENO1 scFv monoclonal antibody from chicken phage library; light chain SEQ ID NO:11, heavy chain SEQ ID NO:12 (antibody, V domains shown)
VH: TVTLDESGGGLQTPRGALSLVCKASGFTFIDYGMQWVRQAPGKGLEWVAGIGSSGSSTNYGAAVKGRATISRDDGQSTVRLQLNNLRAEDTGTYYCAKSAGGYCVNGAGCNGGSIDAWGHGTEVIVSS
VL: ALTQPSSVSANLGGTVKITCSGGSGSYGWYQQKSPGSAPVTVIYSNNQRPSNIPSRFSGSPSGSTGTLTITGVQADDEAVYFCGSRDSSYVGVFGAGTTLTVL
modifications: scFv linker; amino acid sequence comprised in a heavy chain of an anti-CaENO1 scFv monoclonal antibody (CaS1); amino acid sequence comprised in a light chain of an anti-CaENO1 scFv monoclonal antibody (CaS1)
**Q.** For B1, which “Binding activity to recombinant CaENO1 on ELISA” value [1] is on record?
**A.** concentration dependent

**Q.** And the “KD by ELISA” value ([1]; recombinant CaENO1 coated, KD or EC50 from OD percentage)?
**A.** 0.498 µg/mL

**Q.** And the Kd ([1]; recombinant CaENO1 coated, KD or EC50 from OD percentage, read-out: KD by ELISA)?
**A.** 18.8 nM

**Q.** What about the “Binding to fluconazole resistance and susceptible C. albicans from clinic (Western blot)” value [2] of the same molecule?
**A.** binds; also recorded: can bind

**Q.** What about the “Binding to ENO1 in total cell lysate of C. albicans (Western blot)” value ([2]; C. albicans SC 5314 lysate) of the same molecule?
**A.** specifically recognized; also recorded: reacted

**Q.** What about the “Binding to purified mENO1 (Western blot)” value [3] of the same molecule?
**A.** very little; also recorded: weak cross reactivity

**Q.** And the survival rate ([4]; 10 μg pre-incubated with 1×10^6 cells of C. albicans, tail-vein)?
**A.** 40%

**Q.** And the survival rate ([4]; 100 μg mixed with 1×10^6 cells of C. albicans, 10 days)?
**A.** 80%

**Q.** What about the “Protection against lethal challenge of C. albicans in mice” value [4] of the same molecule?
**A.** partial protect activity; also recorded: significant protective activity

**Q.** What about the “Protection against lethal challenge of C. albicans in mice” value ([4]; listed as CaS1 antibody) of the same molecule?
**A.** prolonged the survival time

Source: patent US11485776B2, “Antibodies against infectious diseases” (priority 2015, dated 2022)
